The text below walks through data of patent US20040151731A1.

The target of this test is HLA-A, B, C on presenting PBL. Kind of test: cell-based or functional assay.

Regarding “W6/32 (anti-HLA-A, B, C) monoclonal antibody”, the reduction in γIFN secretion of Long Term AAA cells with PBL presenting cells and collagen was found to be 74%.
